# Source: patent US20200002439A1 (GENSUN BIOPHARMA, published 2020)
# Legend:
# human TGFβ1 = human TGFβ1 (human, UniProt P01137 279-390); test: cell-based or functional assay
# [1] = molecular target: T1, human PD-1 on transfected CHO-K1 cells (human, UniProt Q15116 25-288); test: cell-based blocking assay, flow cytometry: binding of FITC labeled human PD-L1-Fc to human PD-1 transfected CHO-K1 cells is blocked
# T1 construct: also called Human PD-1 transfected CHO-K1 cells
# Method: Incubate for 15 mins before analysis with the iQue intellicyt system.
# [2] = molecular target: T2, recombinant human VEGF 165 (human, UniProt P15692-4 27-191); test: blocking ELISA: VEGF-165 coated on the plate, binding of recombinant human VEGFR-2-hu IgG1-His Tag is blocked
# T2 construct: Bought protein
# Method: Briefly, 0.5 ug/ml of recombinant human VEGF-165 (R&D #293-VE-050/CF) in carbonate-bicarbonate buffer was coated to the wells in a 96-well assay plate and incubated overnight at 4° C. The wells were then washed 3 times with 0.05% Tween 20 in PBS (wash buffer), blocked with 1% BSA in PBS for 1 hour at room temperature, and washed 3 times with wash buffer. 50 μl 5-fold serially diluted antibodies were then added to wells in the plate and incubated for 30 minutes at room temperature. […] 100 μl anti-His tag HRP (1:10,000) was then added and the plates were incubated for 40 mins at room temperature and washed 3 times with wash buffer.
# [3] = molecular target: T2, recombinant human VEGF 165; test: blocking ELISA: VEGF 165 coated on the plate, binding of recombinant human VEGFR-2 is blocked
# Method: (§1) In brief, 96-well assay plates were coated with 0.5 ug/ml of recombinant human VEGF 165 (R&D) in carbonate-bicarbonate buffer (pH 9.6) at 4° C. overnight followed by blocking with 1% BSA/PBS for 1 hour at room temperature. Serially diluted antibodies were then added to the plate and incubated for 30 minutes at room temperature. […] Followed by washing with Wash Buffer, goat anti-mouse IgG-HRP were added to the plate and incubated for 1 hour at room temperature. […] IC50 values were determined as the mid-point in the activity curve.
# [4] = molecular target: T2, recombinant human VEGF 165; test: as above; remark: listed apart in the source
# Method: as §1
# T2 sequence (P15692 other isoform, or with tags, fused parts or gaps limits assumed): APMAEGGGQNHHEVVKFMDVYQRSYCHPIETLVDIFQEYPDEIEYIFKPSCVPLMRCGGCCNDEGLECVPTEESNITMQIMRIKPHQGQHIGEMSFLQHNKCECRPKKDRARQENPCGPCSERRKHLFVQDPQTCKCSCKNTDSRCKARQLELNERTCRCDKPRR
# T1 sequence (Q15116 25-288 limits assumed): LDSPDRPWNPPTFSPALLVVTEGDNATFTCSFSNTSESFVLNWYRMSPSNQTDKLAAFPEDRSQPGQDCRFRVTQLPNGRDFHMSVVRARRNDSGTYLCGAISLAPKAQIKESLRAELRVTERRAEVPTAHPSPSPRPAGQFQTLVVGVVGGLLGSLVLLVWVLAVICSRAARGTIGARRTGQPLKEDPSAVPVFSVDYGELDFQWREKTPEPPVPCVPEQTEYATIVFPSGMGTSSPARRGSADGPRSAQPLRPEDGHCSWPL
# Chain of human TGFβ1 (P01137 279-390 limits assumed): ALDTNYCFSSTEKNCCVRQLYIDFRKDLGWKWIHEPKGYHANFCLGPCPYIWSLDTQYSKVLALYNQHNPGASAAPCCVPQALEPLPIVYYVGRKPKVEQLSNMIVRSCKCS
IC50; luciferase signal of TGFβ/SMAD SBE Reporter-HEK293 cells stimulated with human TGFβ1 (human TGFβ1) [nM],IC50 [1] [nM],IC50 [2] [nM],IC50 [3] [nM],IC50 [4] [nM],Binder
2.95,2.39,7.71,–,–,TS-ZPB-3(2P17) (other) heavy: QVQLVQSGAEVKKPGASVKVSCKASGYTFTSYYIHWVRQAPGQGLEWMGWIFPGSGNSKYNENFKGRVTLTADTSTSTVYMELSSLRSEDTAVYYCASETYDYGDYWGQGTLVTVSSASTKGPSVFPLAPCSRSTSESTAALGCLVKDYFPEPVTVSWNSGALTSGVHTFPAVLQSSGLYSLSSVVTVPSSSLGTKTYTCNVDHKPSNTKVDKRVESKYGPPCPPCPAPEFLGGPSVFLFPPKPKDTLMISRTPEVTCVVVDVSQEDPEVQFNWYVDGVEVHNAKTKPREEQFNSTYRVVSVLTVLHQDWLNGKEYKCKVSNKGLPSSIEKTISKAKGQPREPQVYTLPPSQEEMIPPHVQKSVNNDMIVTDNNGAVKFPQLCKFCDVRFSTCDNQKSCMSNCSITSICEKPQEVCVAVWRKNDENITLETVCHDPKLPYHDFILEDAASPKCIMKEKKKPGETFFMCSCSSDECNDNIIFSEEYNTSNPDTKNQVSLTCLVKGFYPSDIAVEWESNGQPENNYKTTPPVLDSDGSFFLYSRLTVDKSRWQEGNVFSCSVMHEALHNHYTQKSLSLSLGKGGGGSGGGGSGGGGSSDTGRPFVEMYSEIPEIIHMTEGRELVIPCRVTSPNITVTLKKFPLDTLIPDGKRIIWDSRKGFIISNATYKEIGLLTCEATVNGHLYKTNYLTHRQTNTIIDVVLSPSHGIELSVGEKLVLNCTARTELNVGIDFNWEYPSSKHQHKKLVNRDLKTQSGSEMKKFLSTLTIDGVTRSDQGLYTCAASSGLMTKKNSTFVRVHEK light: DIQMTQSPSFLSASVGDRVTITCKASQNVGTNVAWYQQKPGKAPKALIYSASYRYSGVPSRFSGSGSGTEFTLTISSLQPEDFATYYCQQYYSYPYTFGQGTKLEIKRTVAAPSVFIFPPSDEQLKSGTASVVCLLNNFYPREAKVQWKVDNALQSGNSQESVTEQDSKDSTYSLSSTLTLSKADYEKHKVYACEVTHQGLSSPVTKSFNRGEC
–,–,–,0.29,0.2,aflibercept peptide (positive control) (other) SDTGRPFVEMYSEIPEIIHMTEGRELVIPCRVTSPNITVTLKKFPLDTLIPDGKRIIWDSRKGFIISNATYKEIGLLTCEATVNGHLYKTNYLTHRQTNTIIDVVLSPSHGIELSVGEKLVLNCTARTELNVGIDFNWEYPSSKHQHKKLVNRDLKTQSGSEMKKFLSTLTIDGVTRSDQGLYTCAASSGLMTKKNSTFVRVHEK
